Biological target: ectoLRP4-AP (alkaline phosphatase-conjugated ectodomain of mouse LRP4) (mouse) (UniProt Q8VI56)
Test: ELISA; plate-binding assay, competition: 500 nM purified recombinant neural agrin added to 25 nM ectoLRP4-AP on ColQ-coated wells; agrin as the competitor that binds LRP4

Chain of ectoLRP4-AP (alkaline phosphatase-conjugated ectodomain of mouse LRP4) (mouse) (Q8VI56 21-1725): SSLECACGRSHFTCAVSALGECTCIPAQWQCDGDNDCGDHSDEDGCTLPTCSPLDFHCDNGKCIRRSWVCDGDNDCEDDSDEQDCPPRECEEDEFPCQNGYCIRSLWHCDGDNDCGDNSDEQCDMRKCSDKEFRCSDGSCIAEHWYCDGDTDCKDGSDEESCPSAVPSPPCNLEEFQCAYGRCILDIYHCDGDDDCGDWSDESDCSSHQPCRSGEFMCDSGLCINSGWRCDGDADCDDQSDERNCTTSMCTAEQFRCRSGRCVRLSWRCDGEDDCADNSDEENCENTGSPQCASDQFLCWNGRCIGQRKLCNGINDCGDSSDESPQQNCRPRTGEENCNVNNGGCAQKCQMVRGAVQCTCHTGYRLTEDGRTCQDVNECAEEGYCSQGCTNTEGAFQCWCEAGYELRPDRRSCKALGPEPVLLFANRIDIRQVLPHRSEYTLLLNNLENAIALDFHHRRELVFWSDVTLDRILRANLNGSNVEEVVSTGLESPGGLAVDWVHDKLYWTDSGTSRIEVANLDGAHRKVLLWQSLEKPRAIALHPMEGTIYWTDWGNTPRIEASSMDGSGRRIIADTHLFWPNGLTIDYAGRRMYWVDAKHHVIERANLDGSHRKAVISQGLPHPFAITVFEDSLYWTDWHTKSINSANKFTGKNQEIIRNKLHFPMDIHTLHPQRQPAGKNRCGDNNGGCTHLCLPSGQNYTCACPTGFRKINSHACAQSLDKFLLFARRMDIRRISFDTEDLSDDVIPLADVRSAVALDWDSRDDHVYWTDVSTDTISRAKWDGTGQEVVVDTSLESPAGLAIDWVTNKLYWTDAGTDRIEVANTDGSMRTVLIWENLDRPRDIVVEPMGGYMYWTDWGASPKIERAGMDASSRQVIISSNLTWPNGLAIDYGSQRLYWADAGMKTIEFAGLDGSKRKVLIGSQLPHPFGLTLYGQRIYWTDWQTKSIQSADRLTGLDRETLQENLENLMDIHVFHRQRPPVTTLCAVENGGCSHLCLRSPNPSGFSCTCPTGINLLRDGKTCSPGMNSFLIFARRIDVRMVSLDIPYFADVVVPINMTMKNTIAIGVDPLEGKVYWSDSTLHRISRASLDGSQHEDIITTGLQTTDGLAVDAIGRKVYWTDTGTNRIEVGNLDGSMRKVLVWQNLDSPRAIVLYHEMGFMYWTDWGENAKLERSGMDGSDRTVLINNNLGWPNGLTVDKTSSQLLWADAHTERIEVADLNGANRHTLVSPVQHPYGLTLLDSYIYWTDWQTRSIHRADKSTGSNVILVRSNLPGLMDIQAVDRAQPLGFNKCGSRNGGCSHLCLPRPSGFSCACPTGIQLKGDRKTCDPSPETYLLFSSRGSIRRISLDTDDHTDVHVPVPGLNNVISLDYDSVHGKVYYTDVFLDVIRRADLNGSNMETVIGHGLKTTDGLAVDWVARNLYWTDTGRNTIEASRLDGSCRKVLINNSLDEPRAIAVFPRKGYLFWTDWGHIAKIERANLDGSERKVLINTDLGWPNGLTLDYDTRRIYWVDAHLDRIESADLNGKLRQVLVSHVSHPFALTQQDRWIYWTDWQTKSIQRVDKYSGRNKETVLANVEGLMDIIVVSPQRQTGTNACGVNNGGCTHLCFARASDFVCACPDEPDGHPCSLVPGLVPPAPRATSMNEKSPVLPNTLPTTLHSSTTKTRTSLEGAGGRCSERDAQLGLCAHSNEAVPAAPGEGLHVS

**Q.** For “recombinant rat neural agrin (Sf21-derived C-terminal agrin, His-tagged, R&D Systems) (from UniProt P25304 1-1959) (ligand)”, which percent reduction of ectoLRP4-AP (25 nM) binding to ColQ by 500 nM agrin is on record?
**A.** > 50%
